Broadly, the Kd is the constant that tells how readily two partners part at equilibrium.

The target in one data set is T1, purified p97 antigen (Homo sapiens, UniProt P08582).
T1 construct: Soluble p97 (amino acids 20-710 of human p97 precursor); 6xHis; made in house
T1 sequence (P08582 20-710): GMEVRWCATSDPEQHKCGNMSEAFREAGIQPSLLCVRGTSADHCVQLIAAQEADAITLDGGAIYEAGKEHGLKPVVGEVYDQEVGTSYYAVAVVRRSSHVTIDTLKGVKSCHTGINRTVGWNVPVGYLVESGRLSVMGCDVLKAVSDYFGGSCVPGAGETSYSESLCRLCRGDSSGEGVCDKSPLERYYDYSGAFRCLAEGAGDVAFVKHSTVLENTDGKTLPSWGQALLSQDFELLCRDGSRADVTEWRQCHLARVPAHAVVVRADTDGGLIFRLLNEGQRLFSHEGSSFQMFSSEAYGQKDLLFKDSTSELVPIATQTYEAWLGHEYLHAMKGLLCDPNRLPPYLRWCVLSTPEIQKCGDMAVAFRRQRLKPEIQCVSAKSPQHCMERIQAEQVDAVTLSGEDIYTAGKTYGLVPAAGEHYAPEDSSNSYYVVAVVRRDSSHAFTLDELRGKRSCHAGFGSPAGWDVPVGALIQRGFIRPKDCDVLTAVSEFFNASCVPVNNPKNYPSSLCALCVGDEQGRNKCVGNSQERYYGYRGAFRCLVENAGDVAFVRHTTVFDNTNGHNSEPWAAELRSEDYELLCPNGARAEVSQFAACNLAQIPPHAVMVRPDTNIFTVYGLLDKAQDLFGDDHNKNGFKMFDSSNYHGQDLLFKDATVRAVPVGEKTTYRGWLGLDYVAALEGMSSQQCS
Kind of data set: size exclusion chromatography (SEC) binding assay, 2:1 p97 antigen to L49-sFv-bL. Conditions: purified protein after ion exchange. The source says: Double mutants FP960 and FP965 and triple mutant FP990 all show improved refolding activity in crude lysates compared to the parental molecule, and therefore, all three mutant molecules were selected for further analysis. Proteins were expressed at the 1L scale in shake flasks as described in Materials and Methods, supra. Inclusion bodies (IBs) were obtained at a typical yield of 25% (±10%) wet IB mass/wet cell mass. Renatured L49-sFv-bL was purified by aminophenylboronate chromatography, dialyzed into 10 mM Na2PO4 and loaded onto Macro-prep HS resin. Fusion proteins were eluted in a stepwise fashion employing 250 mM NaCl. […] Mutants FP965 and FP990 were greater than 95% monomeric as shown by SEC-HPLC. However, FP960 contained only 55% monomer after cation exchange purification, possibly indicating a key role for the lysine residue at position H39 in refolding. The parental molecule, FP95, was present as 2 bands following aminophenylboronate chromatography. After ion-exchange chromatography only the upper of these 2 bands was eluted. A size exclusion chromatography (SEC) binding assay was developed in which a 2:1 ratio of purified p97 antigen to purified L49-sFv-bL was mixed and analyzed by HPLC-SEC (data not shown).
In general terms: SEC sorts molecules by how far they enter the pores of the column.

For a further data set, the target named is T2, Recombinant p97 (Homo sapiens, UniProt P08582).
T2 construct: Soluble p97 (amino acids 20-710 of human p97 precursor); 6xHis; made in house
T2 sequence (P08582 20-710): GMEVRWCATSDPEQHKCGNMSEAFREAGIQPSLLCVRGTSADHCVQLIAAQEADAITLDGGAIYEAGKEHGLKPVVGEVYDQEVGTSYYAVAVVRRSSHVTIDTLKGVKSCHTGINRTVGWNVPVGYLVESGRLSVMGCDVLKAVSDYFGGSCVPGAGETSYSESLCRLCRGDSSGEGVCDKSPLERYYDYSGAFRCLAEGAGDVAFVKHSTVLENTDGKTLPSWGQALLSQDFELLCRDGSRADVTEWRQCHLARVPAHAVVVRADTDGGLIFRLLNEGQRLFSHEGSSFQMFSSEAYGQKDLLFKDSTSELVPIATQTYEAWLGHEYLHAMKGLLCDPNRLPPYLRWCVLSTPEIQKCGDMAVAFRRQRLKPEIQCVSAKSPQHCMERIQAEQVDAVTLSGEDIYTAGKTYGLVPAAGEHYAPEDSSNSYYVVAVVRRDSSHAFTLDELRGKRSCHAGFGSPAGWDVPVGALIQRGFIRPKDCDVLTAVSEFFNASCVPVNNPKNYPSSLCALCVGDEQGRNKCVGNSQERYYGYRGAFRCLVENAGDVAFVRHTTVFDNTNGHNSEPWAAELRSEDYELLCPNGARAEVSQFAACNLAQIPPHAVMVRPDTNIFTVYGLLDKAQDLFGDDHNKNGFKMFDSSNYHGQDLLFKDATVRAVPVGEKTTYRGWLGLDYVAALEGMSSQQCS
The experiment in a line: binding affinity by surface plasmon resonance (Biacore 2000). Conditions: 25° C., immobilized p97, 1:1 model, error in last digit in parentheses. As for the experimental part:
The buffer used in the study was PBS, 0.005% P20, 0.2 mg/mi BSA. Antigen was immobilized on one flow cell surface of a CM5 sensor chip and the others were left blank to serve as reference surfaces. For each scFv, triplicates of 0, 0.5, 2.8, 8.3, 25, 75 and 225 nM were injected across the immobilized antigen. The association and dissociation phases were monitored for 1 and 20 minutes, respectively. The antigen surface was regenerated with four 18-second pulses of 2.5 mM NaOH between injections.
The binding affinities of double mutants FP960 and FP965 and triple mutants FP990 and FP999 were compared to the parental molecule by surface plasmon resonance. Recombinant p97 was immobilized on a BIACore CM5 sensor chip and varying concentrations of each scFv fusion protein were injected across the chip in triplicate.
A general note: Surface plasmon resonance follows binding to a sensor surface in real time, without labels.

Data set [1] deals with H3677 human melanoma xenografts. Conditions: fusion protein 1 mg/kg i.v. followed 24 h later by C-Mel 100 mg/kg, q7dx3.
For data set [2] the following is noted: cited from earlier work.
In another data set the target is T3, p97 (Homo sapiens, UniProt P08582).
T3 sequence (P08582 20-709): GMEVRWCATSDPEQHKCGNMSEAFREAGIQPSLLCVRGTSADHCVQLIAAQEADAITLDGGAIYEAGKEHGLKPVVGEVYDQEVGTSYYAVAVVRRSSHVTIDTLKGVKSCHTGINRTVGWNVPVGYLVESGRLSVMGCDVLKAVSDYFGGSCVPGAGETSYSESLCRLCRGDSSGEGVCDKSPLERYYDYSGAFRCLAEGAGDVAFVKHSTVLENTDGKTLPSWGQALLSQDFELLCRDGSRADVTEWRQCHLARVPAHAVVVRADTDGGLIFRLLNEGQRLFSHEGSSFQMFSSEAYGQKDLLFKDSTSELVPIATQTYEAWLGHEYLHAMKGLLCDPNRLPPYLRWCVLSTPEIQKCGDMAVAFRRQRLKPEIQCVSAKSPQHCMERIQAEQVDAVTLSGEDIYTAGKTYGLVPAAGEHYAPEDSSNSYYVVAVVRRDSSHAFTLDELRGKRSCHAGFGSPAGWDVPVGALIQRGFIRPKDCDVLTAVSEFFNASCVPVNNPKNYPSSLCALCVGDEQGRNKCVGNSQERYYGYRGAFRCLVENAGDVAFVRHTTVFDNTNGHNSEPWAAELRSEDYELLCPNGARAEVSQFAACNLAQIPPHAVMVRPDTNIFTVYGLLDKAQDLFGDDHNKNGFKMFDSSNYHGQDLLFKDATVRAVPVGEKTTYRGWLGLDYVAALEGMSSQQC
To be noted: parental molecule expressed in the E. coli periplasm; cited from earlier work.

B1: FP95: parental (wt) L49-sFv-bL fusion protein refolded from E. coli inclusion bodies (protein)
scFv: MEVQLQESGPSLVKPSQTLSLTCSVTGDSITSGYWNWIRKFPGNKLEYMGYISDSGITYYNPSLKSRISITRDTSKNQYYLQLNFVTAEDTATYNCARRTLATYYAMDYWGQGTSVTVSSGSTSGSGKPGSGEGSTKGDFVMTQTPLSLPVSLGDQASISCRASQSLVHSNGNTYLHWYLQKPGQSPKLLIYRVSNRFSGVPDRFSGSGSGTDFTLKISRVEAEDLGVYFCSQSTHVPPTFGGGTKLEIKRTPVSEKQLAEVVANTITPLMKAQSVPGMAVAVIYQGKPHYYTFGKADIAANKPVTPQTLFELGSISKTFTGVLGGDAIARGEISLDDAVTRYWPQLTGKQWQGIRMLDLATYTAGGLPLQVPDEVTDNASLLRFYQNWQPQWKPGTTRLYANASIGLFGALAVKPSGMPYEQAMTTRVLKPLKLDHTWINVPKAEEAHYAWGYRDGKAVRVSPGMLDAQAYGVKTNVQDMANWVMANMAPENVADASLKQGIALAQSRYWRIGSMYQGLGWEMLNWPVEANTVVETSFGNVALAPLPVAEVNPPAPPVKASWVHKTGSTGGFGSYVAFIPEKQIGIVMLANTSYPNPARVEAAYHILEALQ
Consider B1, for which the “antigen binding in SEC assay” value with purified p97 antigen is given as “bound antigen completely”. Further, in the data set with Recombinant p97, the ka is 3.038(2) × 10^5 M^−1 s^−1 and the kd was 7.004(5) × 10^−4 s^−1.

B2: FP990: L49-sFv-bL triple mutant K H39 Q, F H82B S, N H91 Y (protein)
scFv: MEVQLQESGPSLVKPSQTLSLTCSVTGDSITSGYWNWIRQFPGNKLEYMGYISDSGITYYNPSLKSRISITRDTSKNQYYLQLNSVTAEDTATYYCARRTLATYYAMDYWGQGTSVTVSSGSTSGSGKPGSGEGSTKGDFVMTQTPLSLPVSLGDQASISCRASQSLVHSNGNTYLHWYLQKPGQSPKLLIYRVSNRFSGVPDRFSGSGSGTDFTLKISRVEAEDLGVYFCSQSTHVPPTFGGGTKLEIKRTPVSEKQLAEVVANTITPLMKAQSVPGMAVAVIYQGKPHYYTFGKADIAANKPVTPQTLFELGSISKTFTGVLGGDAIARGEISLDDAVTRYWPQLTGKQWQGIRMLDLATYTAGGLPLQVPDEVTDNASLLRFYQNWQPQWKPGTTRLYANASIGLFGALAVKPSGMPYEQAMTTRVLKPLKLDHTWINVPKAEEAHYAWGYRDGKAVRVSPGMLDAQAYGVKTNVQDMANWVMANMAPENVADASLKQGIALAQSRYWRIGSMYQGLGWEMLNWPVEANTVVETSFGNVALAPLPVAEVNPPAPPVKASWVHKTGSTGGFGSYVAFIPEKQIGIVMLANTSYPNPARVEAAYHILEALQ
As for B2, the tumor response result in data set [1] is “significant tumor regression”. Also, in the data set with Recombinant p97, the ka is listed as 4.476(1) × 10^5 M^−1 s^−1 and the kd is on record as 7.819(3) × 10^−4 s^−1.

B3: L49-sFv-bL: parental L49 single-chain Fv fused to Enterobacter cloacae β-lactamase, solubly expressed in the E. coli periplasm (Siemers et al., 1997) (protein)
scFv: MEVQLQESGPSLVKPSQTLSLTCSVTGDSITSGYWNWIRKFPGNKLEYMGYISDSGITYYNPSLKSRISITRDTSKNQYYLQLNFVTAEDTATYNCARRTLATYYAMDYWGQGTSVTVSSGSTSGSGKPGSGEGSTKGDFVMTQTPLSLPVSLGDQASISCRASQSLVHSNGNTYLHWYLQKPGQSPKLLIYRVSNRFSGVPDRFSGSGSGTDFTLKISRVEAEDLGVYFCSQSTHVPPTFGGGTKLEIKRTPVSEKQLAEVVANTITPLMKAQSVPGMAVAVIYQGKPHYYTFGKADIAANKPVTPQTLFELGSISKTFTGVLGGDAIARGEISLDDAVTRYWPQLTGKQWQGIRMLDLATYTAGGLPLQVPDEVTDNASLLRFYQNWQPQWKPGTTRLYANASIGLFGALAVKPSGMPYEQAMTTRVLKPLKLDHTWINVPKAEEAHYAWGYRDGKAVRVSPGMLDAQAYGVKTNVQDMANWVMANMAPENVADASLKQGIALAQSRYWRIGSMYQGLGWEMLNWPVEANTVVETSFGNVALAPLPVAEVNPPAPPVKASWVHKTGSTGGFGSYVAFIPEKQIGIVMLANTSYPNPARVEAAYHILEALQ
Regarding B3, in data set [2] (24-48 hours after the fusion protein was administered), the “tumor to blood ratio” value was 141-150 :1. Besides, the “terminal half-life t1/2β” value in data set [2] (clearance from systemic circulation) was 2.5 h. In addition, the Kd with p97 was 1 nM.

B4: FP999: triple mutant K H39 Q, F H82B S, N H91 Y in reverse bL-L49-sFv orientation (β-lactamase at amino terminus) (protein)
chain: TPVSEKQLAEVVANTITPLMKAQSVPGMAVAVIYQGKPHYYTFGKADIAANKPVTPQTLFELGSISKTFTGVLGGDAIARGEISLDDAVTRYWPQLTGKQWQGIRMLDLATYTAGGLPLQVPDEVTDNASLLRFYQNWQPQWKPGTTRLYANASIGLFGALAVKPSGMPYEQAMTTRVLKPLKLDHTWINVPKAEEAHYAWGYRDGKAVRVSPGMLDAQAYGVKTNVQDMANWVMANMAPENVADASLKQGIALAQSRYWRIGSMYQGLGWEMLNWPVEANTVVETSFGNVALAPLPVAEVNPPAPPVKASWVHKTGSTGGFGSYVAFIPEKQIGIVMLANTSYPNPARVEAAYHILEALQMHGTKLMEVQLQESGPSLVKPSQTLSLTCSVTGDSITSGYWNWIRQFPGNKLEYMGYISDSGITYYNPSLKSRISITRDTSKNQYYLQLNSVTAEDTATYYCARRTLATYYAMDYWGQGTSVTVSSGSTSGSGKPGSGEGSTKGDFVMTQTPLSLPVSLGDQASISCRASQSLVHSNGNTYLHWYLQKPGQSPKLLIYRVSNRFSGVPDRFSGSGSGTDFTLKISRVEAEDLGVYFCSQSTHVPPTFGGGTKLEIKR
As to B4, the “antigen binding in SEC assay” value with purified p97 antigen was “bound completely to antigen”. The tumor response result in data set [1] is “significant tumor regression”. Moreover, in the data set with Recombinant p97, the ka is 3.373(3) × 10^5 M^−1 s^−1 and the kd is listed as 5.755(7) × 10^−4 s^−1.

The values are drawn from US20060160174A1, “Modified l49-sfv exhibiting increased stability and methods of use thereof” (priority 2002, published 2006).
